Test results reported in doi:10.1101/714097 (bioRxiv, 2019).
Where two headings read alike, the source gives them in different places.

B1: PrgH (natural protein)
chain: METSKEKTITSPGPYIVRLLNSSLNGCEFPLLTGRTLFVVGQSDALTASGQLPDIPADSFFIPLDHGGVNFEIQVDTDATEIILHELKEGNSESRSVQLNTPIQVGELLILIRPESEPWVPEQPEKLETSAKKNEPRFKNGIVAALAGFFILGIGTVGTLWILNSPQRQAAELDSLLGQEKERFQVLPGRDKMLYVAAQNERDTLWARQVLARGDYDKNARVINENEENKRISIWLDTYYPQLAYYRIHFDEPRKPVFWLSRQRNTMSKKELEVLSQKLRALMPYADSVNITLMDDVTAAGQAEAGLKQQALPYSRRNHKGGVTFVIQGALDDVEILRARQFVDSYYRTWGGRYVQFAIELKDDWLKGRSFQYGAEGYIKMSPGHWYFPSPL
B2: PrgK (natural protein)
chain: CKDKDLLKGLDQEQANEVIAVLQMHNIEANKIDSGKLGYSITVAEPDFTAAVYWIKTYQLPPRPRVEIAQMFPADSLVSSPRAEKARLYSAIEQRLEQSLQTMEGVLSARVHISYDIDAGENGRPPKPVHLSALAVYERGSPLAHQISDIKRFLKNSFADVDYDNISVVLSERSDAQLQAPGTPVKRNSFATSWIVLIILLSVMSAGFGVWYYKNHYARNKKGITADDKAKSSNE
B3: InvG (natural protein)
chain: SEKIPVTGSGFVAKDDSLRTFFDAMALQLKEPVIVSKMAARKKITGNFEFHDPNALLEKLSLQLGLIWYFDGQAIYIYDASEMRNAVVSLRNVSLNEFNNFLKRSGLYNKNYPLRGDNRKGTFYVSGPPVYVDMVVNAATMMDKQNDGIELGRQKIGVMRLNNTFVGDRTYNLRDQKMVIPGIATAIERLLQGEEQPLGNIVSSEPPAMPAFSANGEKGKAANYAGGMSLQEALKQNAAAGNIKIVAYPDTNSLLVKGTAEQVHFIEMLVKALDVAKRHVELSLWIVDLNKSDLERLGTSWSGSITIGDKLGVSLNQSSISTLDGSRFIAAVNALEEKKQATVVSRPVLLTQENVPAIFDNNRTFYTKLIGERNVALEHVTYGTMIRVLPRFSADGQIEMSLDIEDGNDKTPQSDTTTSVDALPEVGRTLISTIARVPHGKSLLVGGYTRDANTDTVQSIPFLGKLPLIGSLFRYSSKNKSNVVRVFMIEPKEIVDPLTPDASESVNNILKQSGAWSGDDKLQKWVRVYLDRGQEAIK
B4: SpaP (natural protein)
chain: MGNDISLIALLAFSTLLPFIIASGTCFVKFSIVFVMVRNALGLQQIPSNMTLNGVALLLSMFVMWPIMHDAYVYFEDEDVTFNDISSLSKHVDEGLDGYRDYLIKYSDRELVQFFENAQLKRQYGEETETVKRDKDEIEKPSIFALLPAYALSEIKSAFKIGFYLYLPFVVVDLVVSSVLLALGMMMMSPVTISTPIKLVLFVALDGWTLLSKGLILQYMDIAT
B5: SpaQ (natural protein)
chain: MDDLVFAGNKALYLVLILSGWPTIVATIIGLLVGLFQTVTQLQEQTLPFGIKLLGVCLCLFLLSGWYGEVLLSYGRQVIFLALAKG

Assays:
cryo-EM structure [1] = target: the molecule itself; assay: cryo-EM structure
cryo-EM structure [2] = target: the molecule itself; assay: cryo-EM structure; remark: listed apart in the source

Protein | stoichiometry N (cryo-EM structure [1]) | stoichiometry N (cryo-EM structure [2])
B1 | 24 | 23
B2 | 24 | 23
B3 | 16 | 15
B4 | 5 | 
B5 | 4 | 
